Two substances from patent US20040071656A1, “Modulation of heat-shock-protein-based immunotherapies” (priority 2001, published 2004) can be followed below.

In this assay the target is T1, exoplasmic domain of human CD40 (GST-CD40) (Homo sapiens, UniProt P25942).
T1 construct: The cDNA for the exoplasmic domain of CD40 (amino acids 20-212); made in house; host or cells: E. coli, pGEX-2T
Kind of assay: GST-CD40 binding and competition assay with recombinant Hsp70 and its domains. As for the experimental part:
For binding assays with recombinant Hsp70 and its domains, 3 μM His6-Hsp70 or its His6-tagged domains were incubated with 2 mM ATP, 2 mM ADP or 2 mM ADP and 28 μM peptide C in 50 μl binding buffer (10 mM MOPS/KOH, pH 7.2, 150 mM KCl and 3 mM MgCl2) for 30 min at 37° C. In competition experiments binding was probed with either a 10-fold excess of Hsp70, the two domains, or DnaK, or with a 5-fold excess of Hip or Bag 1 for 10 min at 0° C. To this end, Hsp70, N70, C70 and DnaK were preincubated with ADP, ATP and peptide C as described above. For comparison of CD40 binding of Hsp70 and its N-terminal domain, Hsp70 was preincubated in the presence or absence (mock treatment) of a 30-fold molar excess of peptide C. 3 μM of GST or GST-CD40 was added to the samples and incubated for 20 min at 16° C. For titration of peptide C, 5- to 50-fold excess of peptide C (15-150 μM) was added to the preincubation of Hsp70. Thereafter the samples were combined with 20 μl of 1% BSA-treated Glutathione Sepharose 4 Fast Flow and incubated in the presence of 2 mM DTT for another 20 min at 16° C. Unbound proteins were removed by washing the beads three times with 1 ml PBS, and immobilized proteins eluted with 30 μl elution buffer for 20 min at 22° C. 10 μl of the eluates were subjected to SDS-PAGE and analyzed by immunoblotting using a Penta-His-antibody (Quiagen). Blot signals were quantified by Quantity One (Biorad).
Details for FIG. 3. Binding of Hsp70 to CD40 is direct and depends on ADP. A. Hela-cell lysates were incubated with GST (control), or GST-CD40 in the amounts indicated. Thereafter samples were affinity purified on glutathione-Sepharose as outlined in Experimental Procedures, subjected to SDS-PAGE and analyzed by immunoblotting with antibodies directed against Hsc70 and Hsp70 (upper lanes), and against Hsp90 (lower lanes). B. Human recombinant His6-tagged Hsp70 was incubated with ATP, ADP, or an excess of peptide C, followed by addition of GST-CD40 or GST alone. After affinity purification samples were analyzed by immunoblotting as described in A, using antibodies directed against the His6-tag. C. Recombinant human His6-tagged Hsp70 was incubated with peptide C, either in the presence or absence of ADP. The reactions were then incubated with ANA1-cell lysates as described in Experimental Procedures. Protein bound to Hsp70 was analyzed by affinity purification on Ni-NTA-agarose and immunoblotting with antibodies directed against CD40.
Details for FIG. 4. Hsp70 binding to CD40 is mediated by the N-terminal ATPase domain and is competed by Hip. A. Human His6-tagged Hsp70, its N- or C-terminal domains, or recombinant bacterial DnaK was incubated either with GST-CD40, or with GST. B. Recombinant DnaK was incubated with ATP, ADP, or an excess of peptide C, followed by addition of GST-CD40 or GST alone. C. His6-tagged N-terminal domain of Hsp70 (N70) was incubated in the presence of ATP or ADP, followed by incubation with a 10-fold molar excess of Hsp70 in the presence of ADP or ATP. D: Recombinant human His6-tagged Hsp70 protein was incubated with a 5-fold molar excess of either recombinant Hip protein or Bag-1, and with GST-CD40 or GST as a control. Bound protein was analyzed after affinity purification on glutathione-Sepharose by immunoblotting with an antibody directed against the N-terminal His6-tags or with an antibody directed against DnaK.
Details for FIG. 5. Peptide substrate stimulates Hsp70 binding to CD40. A. His6-tagged Hsp70 was incubated with increasing concentrations of peptide C as indicated in the Figure, and binding to GST-CD40 analyzed by immunoblotting with antibodies directed against the His6-tag. The lower panel is a quantitation of the data. B. Equivalent concentrations (3 μM) of His6-tagged Hsp70 (in the presence of a 30-fold molar excess of peptide C) or His6-tagged N70 was incubated with GST-CD40, and bound protein was analyzed as described above.

T1 sequence (P25942 20-212): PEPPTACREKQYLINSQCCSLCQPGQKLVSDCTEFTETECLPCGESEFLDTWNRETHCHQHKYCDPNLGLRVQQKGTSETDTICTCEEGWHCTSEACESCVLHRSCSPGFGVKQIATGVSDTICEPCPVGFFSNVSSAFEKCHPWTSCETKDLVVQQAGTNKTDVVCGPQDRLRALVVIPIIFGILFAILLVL

Consider “Hsp70: Recombinant human heat shock protein 70, expressed and purified as His-tagged protein”, for which the “Hsp70 binding to CD40 in the presence of ADP” value (3 μM His6-Hsp70, 2 mM ADP) is reported as “only seen in the presence of ADP”. The “Hsp70 binding to CD40 in the presence of ATP” value (3 μM His6-Hsp70, 2 mM ATP) is “barely detectable”.
For “N70: Recombinant N-terminal ATPase domain of human Hsp70, residues 5-381 (SEQ ID NO: 1)”, the “binding efficiency to CD40, substrate-saturated Hsp70 versus N-terminal domain” value (3 μM each, ADP states, Hsp70 with 30-fold molar excess of peptide C) is reported as “bound to CD40 with similar efficiencies”. The “direct binding to CD40 (GST-CD40 pull down), nucleotide dependence” value (ADP versus ATP) is “bound to CD40 in the presence of ADP but not ATP”. In addition, under “ADP, 5-fold molar excess of competitor”, the “competition for the binding of full-length Hsp70 to CD40” value was “efficiently competed”.
